Test results as given in patent publication US20210246204A1 (Alector, published 2021).
Substitutions are numbered along the chain they refer to. Each block holds one binder with its values, some of them ahead of it.

Key:
[1] = molecular target: human Siglec-7 on primary human monocyte-derived dendritic cells (human, UniProt Q9Y286 19-467); assay: cell-based or functional assay
[2] = molecular target: T1, histidine-tagged human Siglec-7 (NovoProtein) (human, UniProt Q9Y286 19-353); assay: BLI, antibody captured
T1 construct: Bought protein; also called recombinant human Siglec-7; recombinant Siglec-7; not shown: histidine tag
T1 sequence (Q9Y286 19-353 limits assumed): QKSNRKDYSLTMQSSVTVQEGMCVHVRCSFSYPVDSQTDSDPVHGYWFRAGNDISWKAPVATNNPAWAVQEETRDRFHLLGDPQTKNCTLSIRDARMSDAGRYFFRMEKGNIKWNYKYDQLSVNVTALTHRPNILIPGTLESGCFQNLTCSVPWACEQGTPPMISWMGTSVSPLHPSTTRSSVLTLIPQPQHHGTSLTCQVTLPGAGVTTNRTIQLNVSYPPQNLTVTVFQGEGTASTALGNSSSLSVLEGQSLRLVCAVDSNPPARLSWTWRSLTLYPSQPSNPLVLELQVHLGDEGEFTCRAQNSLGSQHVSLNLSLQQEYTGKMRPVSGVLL
Description: In this assay, the humanized antibodies were compared directly to S7AB. Briefly, the antibodies were captured on anti-human or anti-mouse IgG Fc Biosensors (Pall ForteBio). Varying concentrations (0-100 nM) of histidine-tagged human Siglec-7 (NovoProtein) were then bound to the captured anti-Siglec-7 surface (200 s association time, 900 s dissociation time). Multi-concentration kinetic analysis was performed using a 1:1 interaction model to extract association and dissociation rate constants (kₐ and kd, respectively) for each antibody. Apparent affinity constants (KD) were calculated from the ratio kd/kₐ.
The affinities of S7AB-H8 and variants S7AB-H8.1 through S7AB-H8.45 for human Siglec-7 were measured by BioLayer Interferometry according to the method described in Example 1 above.

Chain of human Siglec-7 on primary human monocyte-derived dendritic cells (Q9Y286 19-467): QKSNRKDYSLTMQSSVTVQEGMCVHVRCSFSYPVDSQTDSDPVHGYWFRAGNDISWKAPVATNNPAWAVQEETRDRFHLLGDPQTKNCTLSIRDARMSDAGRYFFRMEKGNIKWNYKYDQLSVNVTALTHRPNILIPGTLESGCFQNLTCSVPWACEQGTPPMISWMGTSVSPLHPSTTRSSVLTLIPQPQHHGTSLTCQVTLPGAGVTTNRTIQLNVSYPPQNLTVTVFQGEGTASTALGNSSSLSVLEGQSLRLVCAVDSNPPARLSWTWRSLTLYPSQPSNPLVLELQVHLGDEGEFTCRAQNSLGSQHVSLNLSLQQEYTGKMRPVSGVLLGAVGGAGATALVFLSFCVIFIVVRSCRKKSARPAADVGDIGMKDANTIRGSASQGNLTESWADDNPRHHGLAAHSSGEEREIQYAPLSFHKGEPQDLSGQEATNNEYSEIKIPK

Fold increase in potency compared to AB-H8 [1]: 2.2 fold
Fold increase in potency compared to Chimeric Ab [1]: 6.8 fold
Maximal downregulation (% Siglec-7 remaining) [1]: 13.6%
Receptor downregulation, (EC50) (pM) [1]: 152 pM
Kd [2]: 0.936 nM
fold improvement over S7AB-H8 [2]: 1.1 fold
koff [2]: 0.000125 s⁻¹
kon [2]: 133000 M⁻¹ s⁻¹
B3: S7AB-H8.21 (antibody, V domains shown)
VH: QVQLVQSGAEVKKPGASVKVSCKASGYAFTETWMNWVRQAPGQGLEWIGRIFPGLGHTNYAQKFQGRATLTEDTSTSTAYMELSSLRSEDTAVYYCARDYSDYYFDYWGQGTLVTVSS
VL: DIQMTQSPSSLSASVGDRVTITCRASEDINTYLNWYQQKPGKAPKLLIYYTSRLHSGVPSRFSGSGSGTDYTLTISSLQPEDFATYYCQQGGTLPWTFGQGTKLEIK

Fold increase in potency compared to AB-H8 [1]: 5 fold
Fold increase in potency compared to Chimeric Ab [1]: 15.2 fold
Maximal downregulation (% Siglec-7 remaining) [1]: 18.9%
Receptor downregulation, (EC50) (pM) [1]: 67.3 pM
Kd [2]: 0.712 nM
fold improvement over S7AB-H8 [2]: 1.5 fold
koff [2]: 0.000142 s⁻¹
kon [2]: 199000 M⁻¹ s⁻¹
B4: S7AB-H8.18 (antibody, V domains shown)
VH: B3 VH with E31G, T32Y
VL: B3 VL with A25G, E27Q, I29T, G92N

Fold increase in potency compared to AB-H8 [1]: 1.7 fold
Fold increase in potency compared to Chimeric Ab [1]: 5.2 fold
Maximal downregulation (% Siglec-7 remaining) [1]: 7%
Receptor downregulation, (EC50) (pM) [1]: 197 pM
Kd [2]: 1.62 nM
fold improvement over S7AB-H8 [2]: 0.6 fold
koff [2]: 8.14e-05 s⁻¹
kon [2]: 50400 M⁻¹ s⁻¹
B5: S7AB-H8.10 (antibody, V domains shown)
VH: B3 VH with T32A, L55Y
VL: B3 VL with A25G, E27Q, G92N, L94K

Fold increase in potency compared to AB-H8 [1]: 0.01 fold
Fold increase in potency compared to Chimeric Ab [1]: 0.04 fold
Maximal downregulation (% Siglec-7 remaining) [1]: 61.3%
Receptor downregulation, (EC50) (pM) [1]: 25400 pM
Kd [2]: 46.3 nM
fold improvement over S7AB-H8 [2]: 0.02 fold
koff [2]: 0.000155 s⁻¹
kon [2]: 3350 M⁻¹ s⁻¹
B6: S7AB-H8.12 (antibody, V domains shown)
VH: B3 VH with E31M, T32A, L55Y
VL: B3 VL with A25G, E27Q, Q90G, G92N

Fold increase in potency compared to AB-H8 [1]: 3.5 fold
Fold increase in potency compared to Chimeric Ab [1]: 10.5 fold
Maximal downregulation (% Siglec-7 remaining) [1]: 6.7%
Receptor downregulation, (EC50) (pM) [1]: 97.8 pM
Kd [2]: 0.898 nM
fold improvement over S7AB-H8 [2]: 1.2 fold
koff [2]: 0.000112 s⁻¹
kon [2]: 125000 M⁻¹ s⁻¹
B9: S7AB-H8.19 (antibody, V domains shown)
VH: B3 VH with E31A, T32A
VL: B3 VL with A25G, E27Q, I29T, G92N

Fold increase in potency compared to AB-H8 [1]: 0.1 fold
Fold increase in potency compared to Chimeric Ab [1]: 0.5 fold
Maximal downregulation (% Siglec-7 remaining) [1]: 43.3%
Receptor downregulation, (EC50) (pM) [1]: 2270 pM
Kd [2]: 35.7 nM
fold improvement over S7AB-H8 [2]: 0.03 fold
koff [2]: 0.000303 s⁻¹
kon [2]: 8500 M⁻¹ s⁻¹
B10: S7AB-H8.13 (antibody, V domains shown)
VH: B3 VH with E31G, T32Y
VL: B3 VL with A25G, E27Q, Q90G, G92N

Fold increase in potency compared to AB-H8 [1]: 3.1 fold
Fold increase in potency compared to Chimeric Ab [1]: 9.4 fold
Maximal downregulation (% Siglec-7 remaining) [1]: 3.9%
Receptor downregulation, (EC50) (pM) [1]: 109 pM
Kd [2]: < 0.001 nM
fold improvement over S7AB-H8 [2]: > 1000 fold
koff [2]: < 1e-07 s⁻¹
kon [2]: 135000 M⁻¹ s⁻¹
B13: S7AB-H8.22 (antibody, V domains shown)
VH: B3 VH with E31M, T32A, L55Y
VL: B3 VL

Maximal downregulation (% Siglec-7 remaining) [1]: 85%
Receptor downregulation, (EC50) (pM) [1]: > 3000 pM
Kd [2]: 2.6 nM
fold improvement over S7AB-H8 [2]: 0.4 fold
koff [2]: 0.000607 s⁻¹
kon [2]: 233000 M⁻¹ s⁻¹
B16: S7AB-H8.15 (antibody, V domains shown)
VH: B3 VH with T32A, L55Y
VL: B3 VL with A25G, E27Q, Q90G, G92N

Fold increase in potency compared to AB-H8 [1]: 1.4 fold
Fold increase in potency compared to Chimeric Ab [1]: 4.2 fold
Maximal downregulation (% Siglec-7 remaining) [1]: 10.6%
Receptor downregulation, (EC50) (pM) [1]: 245 pM
Kd [2]: 1.81 nM
fold improvement over S7AB-H8 [2]: 0.6 fold
koff [2]: 0.000145 s⁻¹
kon [2]: 79900 M⁻¹ s⁻¹
B17: S7AB-H8.20 (antibody, V domains shown)
VH: B3 VH with T32A, L55Y
VL: B3 VL with A25G, E27Q, I29T, G92N

Fold increase in potency compared to AB-H8 [1]: 2.9 fold
Fold increase in potency compared to Chimeric Ab [1]: 8.8 fold
Maximal downregulation (% Siglec-7 remaining) [1]: 8%
Receptor downregulation, (EC50) (pM) [1]: 116 pM
Kd [2]: 0.814 nM
fold improvement over S7AB-H8 [2]: 1.3 fold
koff [2]: 0.000104 s⁻¹
kon [2]: 128000 M⁻¹ s⁻¹
B19: S7AB-H8.17 (antibody, V domains shown)
VH: B3 VH with E31M, T32A, L55Y
VL: B3 VL with A25G, E27Q, I29T, G92N

More lines, now with the values behind:

B1: S7AB-H8.7 (antibody, V domains shown)
VH: B3 VH with E31M, T32A, L55Y
VL: B3 VL with A25G, E27Q, G92N, L94K
Fold increase in potency compared to AB-H8 [1]: 4 fold
Fold increase in potency compared to Chimeric Ab [1]: 12.1 fold
Maximal downregulation (% Siglec-7 remaining) [1]: 2.1%
Receptor downregulation, (EC50) (pM) [1]: 84.7 pM
Kd [2]: 0.62 nM
fold improvement over S7AB-H8 [2]: 1.7 fold
koff [2]: 4.19e-05 s⁻¹
kon [2]: 67600 M⁻¹ s⁻¹

B2: S7AB-H8.8 (antibody, V domains shown)
VH: B3 VH with E31G, T32Y
VL: B3 VL with A25G, E27Q, G92N, L94K
Fold increase in potency compared to AB-H8 [1]: 3.8 fold
Fold increase in potency compared to Chimeric Ab [1]: 11.4 fold
Maximal downregulation (% Siglec-7 remaining) [1]: 19.2%
Receptor downregulation, (EC50) (pM) [1]: 89.8 pM
Kd [2]: 0.371 nM
fold improvement over S7AB-H8 [2]: 2.8 fold
koff [2]: 6.33e-05 s⁻¹
kon [2]: 171000 M⁻¹ s⁻¹

B7: S7AB-H8.26 (antibody, V domains shown)
VH: B3 VH
VL: B3 VL with E27Q, I29A, G92N, T93L
Fold increase in potency compared to AB-H8 [1]: 1.9 fold
Fold increase in potency compared to Chimeric Ab [1]: 5.7 fold
Maximal downregulation (% Siglec-7 remaining) [1]: 9.8%
Receptor downregulation, (EC50) (pM) [1]: 180 pM
Kd [2]: 0.397 nM
fold improvement over S7AB-H8 [2]: 2.6 fold
koff [2]: 5.9e-05 s⁻¹
kon [2]: 149000 M⁻¹ s⁻¹

B8: S7AB-H8.16 (antibody, V domains shown)
VH: B3 VH
VL: B3 VL with A25G, E27Q, I29T, G92N
Fold increase in potency compared to AB-H8 [1]: 1 fold
Fold increase in potency compared to Chimeric Ab [1]: 2.9 fold
Maximal downregulation (% Siglec-7 remaining) [1]: 10.1%
Receptor downregulation, (EC50) (pM) [1]: 348 pM
Kd [2]: 2.53 nM
fold improvement over S7AB-H8 [2]: 0.4 fold
koff [2]: 0.000165 s⁻¹
kon [2]: 65400 M⁻¹ s⁻¹

B11: S7AB-H8.14 (antibody, V domains shown)
VH: B3 VH with E31A, T32A
VL: B3 VL with A25G, E27Q, Q90G, G92N
Fold increase in potency compared to AB-H8 [1]: 0.2 fold
Fold increase in potency compared to Chimeric Ab [1]: 0.5 fold
Maximal downregulation (% Siglec-7 remaining) [1]: 45.7%
Receptor downregulation, (EC50) (pM) [1]: 1950 pM
Kd [2]: 54.1 nM
fold improvement over S7AB-H8 [2]: 0.02 fold
koff [2]: 0.000176 s⁻¹
kon [2]: 3260 M⁻¹ s⁻¹

B12: S7AB-H8.24 (antibody, V domains shown)
VH: B3 VH with E31A, T32A
VL: B3 VL
Fold increase in potency compared to AB-H8 [1]: 2.6 fold
Fold increase in potency compared to Chimeric Ab [1]: 8 fold
Maximal downregulation (% Siglec-7 remaining) [1]: 4.3%
Receptor downregulation, (EC50) (pM) [1]: 129 pM
Kd [2]: 0.0368 nM
fold improvement over S7AB-H8 [2]: 28.5 fold
koff [2]: 4.81e-06 s⁻¹
kon [2]: 131000 M⁻¹ s⁻¹

B14: S7AB-H8.23 (antibody, V domains shown)
VH: B3 VH with E31G, T32Y
VL: B3 VL
Fold increase in potency compared to AB-H8 [1]: 3.8 fold
Fold increase in potency compared to Chimeric Ab [1]: 11.4 fold
Maximal downregulation (% Siglec-7 remaining) [1]: 17.2%
Receptor downregulation, (EC50) (pM) [1]: 90.1 pM
Kd [2]: 0.235 nM
fold improvement over S7AB-H8 [2]: 4.5 fold
koff [2]: 5.53e-05 s⁻¹
kon [2]: 235000 M⁻¹ s⁻¹

B15: S7AB-H8.25 (antibody, V domains shown)
VH: B3 VH with T32A, L55Y
VL: B3 VL
Fold increase in potency compared to AB-H8 [1]: 1.8 fold
Fold increase in potency compared to Chimeric Ab [1]: 5.4 fold
Maximal downregulation (% Siglec-7 remaining) [1]: 9.2%
Receptor downregulation, (EC50) (pM) [1]: 189 pM
Kd [2]: 0.265 nM
fold improvement over S7AB-H8 [2]: 4 fold
koff [2]: 2.77e-05 s⁻¹
kon [2]: 104000 M⁻¹ s⁻¹

B18: S7AB-H8.11 (antibody, V domains shown)
VH: B3 VH
VL: B3 VL with A25G, E27Q, Q90G, G92N
Fold increase in potency compared to AB-H8 [1]: 0.05 fold
Fold increase in potency compared to Chimeric Ab [1]: 0.1 fold
Maximal downregulation (% Siglec-7 remaining) [1]: 74.7%
Receptor downregulation, (EC50) (pM) [1]: 7140 pM
Kd [2]: 124 nM
fold improvement over S7AB-H8 [2]: 0.01 fold
koff [2]: 0.000388 s⁻¹
kon [2]: 3140 M⁻¹ s⁻¹

B20: S7AB-H8.9 (antibody, V domains shown)
VH: B3 VH with E31A, T32A
VL: B3 VL with A25G, E27Q, G92N, L94K
Fold increase in potency compared to AB-H8 [1]: 2.9 fold
Fold increase in potency compared to Chimeric Ab [1]: 8.8 fold
Maximal downregulation (% Siglec-7 remaining) [1]: 3.1%
Receptor downregulation, (EC50) (pM) [1]: 116 pM
Kd [2]: 0.527 nM
fold improvement over S7AB-H8 [2]: 2 fold
koff [2]: 4.82e-05 s⁻¹
kon [2]: 91400 M⁻¹ s⁻¹
